Patent publication US20210395761, “SERINE RECOMBINASES MEDIATING STABLE INTEGRATION INTO PLANT GENOMES” (GREENVENUS, LLC, published 2021)

B1: lettuce pseudo-attB 207599470 (dsDNA)
DNA 1: CAATGGTGAATATAGTCCGGCGACCAACTCTGTCCACTATCAGCAACGATAAAAAGGTCATGCTAAGACCCACAAGCCCAGTCACCACTGCTGACATAAG
DNA 2: CTTATGTCAGCAGTGGTGACTGGGCTTGTGGGTCTTAGCATGACCTTTTTATCGTTGCTGATAGTGGACAGAGTTGGTCGCCGGACTATATTCACCATTG
B2: lettuce pseudo-attB 411877132 (dsDNA)
DNA 1: ATAAGTTTAGATCTTATTGAACTAGGCTTGTGGTGCTTGTTTAAGGCCATAAATCGCCTTATTCAAGCGACAAAAATGAGACGAATAGGTGGAGTCTTCA
DNA 2: TGAAGACTCCACCTATTCGTCTCATTTTTGTCGCTTGAATAAGGCGATTTATGGCCTTAAACAAGCACCACAAGCCTAGTTCAATAAGATCTAAACTTAT
B3: lettuce pseudo-attB 310607752 (dsDNA)
DNA 1: CACAAAAAATTGACCATTTCTAGCAACTTCCTATGATACGTTGATACTTTCTAAACATTAATTACAATGACAAAATGAAGTCTACCAAATCATTCATAGA
DNA 2: TCTATGAATGATTTGGTAGACTTCATTTTGTCATTGTAATTAATGTTTAGAAAGTATCAACGTATCATAGGAAGTTGCTAGAAATGGTCAATTTTTTGTG
B4: lettuce pseudo-attB 328302882 (dsDNA)
DNA 1: TCCGTCACAAATTGCATCACTACGACTAAGATCTTCATCAATGATTCTATTAAGGAGATTCTTACATTGAAGGAGAAGTTACATAAATTCTTTATTATTT
DNA 2: AAATAATAAAGAATTTATGTAACTTCTCCTTCAATGTAAGAATCTCCTTAATAGAATCATTGATGAAGATCTTAGTCGTAGTGATGCAATTTGTGACGGA
B5: lettuce pseudo-attB 115327723 (dsDNA)
DNA 1: TATTTGTGATGTGACATGACAAATAATGATGTTACAATATTATGTACCTCTAAATGAGATCTAGCATTGAAGATTGCATGAATATTCTTGAGTGTGTTATT
DNA 2: AATAACACACTCAAGAATATTCATGCAATCTTCAATGCTAGATCTCATTTAGAGGTACATAATATTGTAACATCATTATTTGTCATGTCACATCACAAATA
B6: lettuce pseudo-attB 13364626 (dsDNA)
DNA 1: TGAATTTCTTATGAAGGTTACAACGCATCGTGGATTACAAGCAATTCTGTTTAGTCTGTTATGTTGTTGAATTTGAATGGATCTTGTCCTCAGTTACTCA
DNA 2: TGAGTAACTGAGGACAAGATCCATTCAAATTCAACAACATAACAGACTAAACAGAATTGCTTGTAATCCACGATGCGTTGTAACCTTCATAAGAAATTCA
B7: N. benthamiana pseudo-attB Niben101Scf11415 (dsDNA)
DNA 1: CTAATATACATTGACAGTGTTAAAAAAAATCTATTAACGACAATATAGAGAAGAGAGTACTTACATGAATGACGTCTACTTTGACTCCGTCAATTCCAAC
DNA 2: GTTGGAATTGACGGAGTCAAAGTAGACGTCATTCATGTAAGTACTCTCTTCTCTATATTGTCGTTAATAGATTTTTTTTAACACTGTCAATGTATATTAG
B8: N. benthamiana pseudo-attB Niben101Scf00773 (dsDNA)
DNA 1: ACATGGAGCAATGATGGAGAAAAATGGTGGTCATTACTACTGAAGTTGTCAAAGCAAAGCTGTCAGGTAACATCAAATGATCTCTAAATCAATTAGTCTT
DNA 2: AAGACTAATTGATTTAGAGATCATTTGATGTTACCTGACAGCTTTGCTTTGACAACTTCAGTAGTAATGACCACCATTTTTCTCCATCATTGCTCCATGT
B9: N. benthamiana pseudo-attB Niben101Scf04574 (dsDNA)
DNA 1: TAGGCTTACATTCCTGATGTACTATCCCATTATGCAATAATAAAGATGCAAAATAGGAAATGTCATTGACAGCTACGAGATCTATCTTTATTGATTCACT
DNA 2: AGTGAATCAATAAAGATAGATCTCGTAGCTGTCAATGACATTTCCTATTTTGCATCTTTATTATTGCATAATGGGATAGTACATCAGGAATGTAAGCCTA
B10: N. benthamiana pseudo-attB Niben101Scf04030 (dsDNA)
DNA 1: TTGCTGTCTTTTCATACTTTTCTAAGTTGAAAGTACTTGAAAGTACGACCAAGAAAATGATTATATTTGACACAGAAAATGCAAGGTACTTTGAATGTGA
DNA 2: TCACATTCAAAGTACCTTGCATTTTCTGTGTCAAATATAATCATTTTCTTGGTCGTACTTTCAAGTACTTTCAACTTAGAAAAGTATGAAAAGACAGCAA
B11: N. benthamiana pseudo-attB Niben101Scf00732 (dsDNA)
DNA 1: not shown
DNA 2: not shown
B12: N. benthamiana pseudo-attB Niben101Scf13522 (dsDNA)
DNA 1: GGATAAGGGAGGGTTTAGATATTTTGAAAGGGTTAAGGGGTAAAATCACTAAGGGGGAATTAACAATGCACACTAGGGTTGCCTTAAAAGTGCCTATATA
DNA 2: TATATAGGCACTTTTAAGGCAACCCTAGTGTGCATTGTTAATTCCCCCTTAGTGATTTTACCCCTTAACCCTTTCAAAATATCTAAACCCTCCCTTATCC

These binders were tested against T1, SPβc2 serine recombinase (SPβc2-HA-NLS) (Bacillus subtilis phage SPβc2, UniProt O32006 SEQ:1-545) (assay: cell_activity; partner attP vector). Conditions: tags: C-terminal HA and SV40 NLS.
T1 sequence (O32006 whole entry): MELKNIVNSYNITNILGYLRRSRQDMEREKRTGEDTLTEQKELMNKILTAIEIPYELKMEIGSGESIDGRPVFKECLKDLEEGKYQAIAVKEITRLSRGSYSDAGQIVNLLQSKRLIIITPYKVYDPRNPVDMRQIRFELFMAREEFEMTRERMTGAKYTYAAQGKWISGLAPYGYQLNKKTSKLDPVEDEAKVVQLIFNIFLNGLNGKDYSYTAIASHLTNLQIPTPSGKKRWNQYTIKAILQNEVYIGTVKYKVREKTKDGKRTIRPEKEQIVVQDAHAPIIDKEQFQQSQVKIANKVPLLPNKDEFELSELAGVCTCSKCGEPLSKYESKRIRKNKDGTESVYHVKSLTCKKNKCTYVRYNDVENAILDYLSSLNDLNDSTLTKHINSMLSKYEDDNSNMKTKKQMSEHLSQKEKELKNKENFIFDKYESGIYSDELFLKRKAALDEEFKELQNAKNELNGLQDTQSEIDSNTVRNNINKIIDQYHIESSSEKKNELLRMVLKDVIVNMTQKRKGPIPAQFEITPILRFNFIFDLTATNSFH
Text: In addition to the 20 GFP-positive kanamycin-resistant regenerated events, 35 GFP-positive kanamycin-resistant calli were also sampled for gDNA extraction and insertion analysis. These events were not analyzed by qPCR for NPT-II copy number due to the likelihood of circular non-integrated plasmid being present in the callus tissue. The 55 unique GFP-positive kanamycin-resistant attP/SPβc2 events were screened by end-point PCR for the right gDNA:insert junction (SpecR side) for each of the 7 previously identified integration sites. Four of the 7 insertion sites were identified in multiple unique events with one of the integration sites found in 8 events including the 2 events in which it was identified by next-gen sequencing (Table 13). Sanger sequencing of amplicons from both left and right gDNA:insert borders for 3 of the events with integrations in site 7493878 identified a lbp difference in the insert:gDNA recombination site compared to the originally identified borders (FIG. 20 C-E). As was done in Benthi, the population was also screened for presence of the recombinase expression construct (ID363); it was found in 2 out of the 20 regenerated attP/SPβc2 events (data not shown).

Row | Binder | activity [integration events]
1 | B1 | 7
2 | B2 | 2
3 | B3 | 1
4 | B4 | 2
5 | B5 | 1
6 | B6 | 1

Biological target: T1, SPβc2 serine recombinase (SPβc2-HA-NLS)
Test: cell_activity; partner attP vector
Conditions: tags: C-terminal HA and SV40 NLS
Remark: another data set of the same source
Description: Wild tobacco relative Nicotiana benthamiana (Benthi) events were generated through co-transfection of a SPβc2 expression vector (or control filler vector: CAT) plus a target integration vector containing GFP, NptII, and a SPβc2 attachment site (attP, attB, or site-less control). Colonies were regenerated in the presence of a kanamycin gradient to detect NptII and the presence of GFP was determined through illumination with a blue “biolight” together with an appropriate filter (FIG. 1). […] Enhanced regeneration of transgenic colonies varied between 10 and 65 fold and was dependent on the Kanamycin concentration used for selection. […] Very few GFP-positive kanamycin-resistant colonies arose from the attB/SPβc2 or Siteless/SPβc2 conditions, indicating a dependence on the attP site for interaction with plant pseudo-attB sites. […] A total of 126 plants from 91 unique calli events were regenerated, transplanted into soil, and carried forward to seed collection (Table 7).
To determine whether any of the sites identified by GenomeWalker were preferentially utilized for integration by the SPβc2 recombinase, 64 attP/SPβc2 regenerated events were screened by end-point PCR for amplification of the left (35S side) gDNA:insert border.

Row | Binder | activity [integration events]
7 | B7 | 1
8 | B8 | 1
9 | B9 | 1
10 | B10 | 2
11 | B11 | 1
12 | B12 | 2
